Data published in publication PMC8096239, “Nse5/6 is a negative regulator of the ATPase activity of the Smc5/6 complex”.

Tests used:
[1] = target: Smc5/6 core complex (S5-S6-N2) (Saccharomyces cerevisiae, UniProt Q08204;Q12749;P38632 1-1093;1-1114;1-267); experiment: EMSA; some aggregated material in wells at high concentration; EMSA: 200 nM hairpin, 20 mM HEPES-NaOH pH 7.5, 150 mM NaCl, 0.5 mM TCEP, 30 min at 4 C; 0.8% TBE-agarose gel, 50 V, 3 h, 4 C; settings: protein: recombinant, tags: Smc5-FLAG, Smc6-AVI-HIS, HA-Nse2, copies: 1;1;1, label: fluorescein on position 5 of thymine, 6-carbon spacer, 48 bp stem, 4 nt loop AATA, blunt end
Chain of Smc5/6 core complex (S5-S6-N2) (Q08204 whole entry, chain 1 of 3): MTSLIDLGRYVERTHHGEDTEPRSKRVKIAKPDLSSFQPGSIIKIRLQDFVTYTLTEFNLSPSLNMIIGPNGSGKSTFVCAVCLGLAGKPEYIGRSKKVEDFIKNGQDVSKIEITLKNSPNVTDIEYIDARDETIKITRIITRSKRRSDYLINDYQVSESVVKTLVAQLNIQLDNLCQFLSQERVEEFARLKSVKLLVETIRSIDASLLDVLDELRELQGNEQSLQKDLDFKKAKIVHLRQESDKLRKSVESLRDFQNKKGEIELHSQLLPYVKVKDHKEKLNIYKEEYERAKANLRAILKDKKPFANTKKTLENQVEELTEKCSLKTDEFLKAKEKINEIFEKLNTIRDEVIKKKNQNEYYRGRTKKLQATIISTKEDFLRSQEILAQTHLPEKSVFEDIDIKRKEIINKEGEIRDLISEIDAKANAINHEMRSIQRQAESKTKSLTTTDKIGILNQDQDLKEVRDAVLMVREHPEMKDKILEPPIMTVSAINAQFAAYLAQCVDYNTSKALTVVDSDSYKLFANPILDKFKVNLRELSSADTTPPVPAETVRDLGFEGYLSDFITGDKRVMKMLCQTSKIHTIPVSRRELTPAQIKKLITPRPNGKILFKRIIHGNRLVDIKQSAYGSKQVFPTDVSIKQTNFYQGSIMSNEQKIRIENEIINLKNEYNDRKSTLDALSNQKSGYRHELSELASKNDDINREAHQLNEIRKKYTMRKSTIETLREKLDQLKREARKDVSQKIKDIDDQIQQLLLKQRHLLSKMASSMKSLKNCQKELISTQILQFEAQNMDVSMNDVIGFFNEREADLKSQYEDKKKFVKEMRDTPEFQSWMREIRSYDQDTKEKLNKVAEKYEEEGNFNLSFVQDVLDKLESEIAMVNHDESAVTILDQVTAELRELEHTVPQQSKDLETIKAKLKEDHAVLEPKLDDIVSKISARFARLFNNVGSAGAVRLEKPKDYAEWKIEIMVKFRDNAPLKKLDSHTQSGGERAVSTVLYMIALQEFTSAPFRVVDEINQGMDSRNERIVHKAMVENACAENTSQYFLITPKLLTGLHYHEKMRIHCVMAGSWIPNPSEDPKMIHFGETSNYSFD
Chain of Smc5/6 core complex (S5-S6-N2) (Q12749 whole entry, chain 2 of 3): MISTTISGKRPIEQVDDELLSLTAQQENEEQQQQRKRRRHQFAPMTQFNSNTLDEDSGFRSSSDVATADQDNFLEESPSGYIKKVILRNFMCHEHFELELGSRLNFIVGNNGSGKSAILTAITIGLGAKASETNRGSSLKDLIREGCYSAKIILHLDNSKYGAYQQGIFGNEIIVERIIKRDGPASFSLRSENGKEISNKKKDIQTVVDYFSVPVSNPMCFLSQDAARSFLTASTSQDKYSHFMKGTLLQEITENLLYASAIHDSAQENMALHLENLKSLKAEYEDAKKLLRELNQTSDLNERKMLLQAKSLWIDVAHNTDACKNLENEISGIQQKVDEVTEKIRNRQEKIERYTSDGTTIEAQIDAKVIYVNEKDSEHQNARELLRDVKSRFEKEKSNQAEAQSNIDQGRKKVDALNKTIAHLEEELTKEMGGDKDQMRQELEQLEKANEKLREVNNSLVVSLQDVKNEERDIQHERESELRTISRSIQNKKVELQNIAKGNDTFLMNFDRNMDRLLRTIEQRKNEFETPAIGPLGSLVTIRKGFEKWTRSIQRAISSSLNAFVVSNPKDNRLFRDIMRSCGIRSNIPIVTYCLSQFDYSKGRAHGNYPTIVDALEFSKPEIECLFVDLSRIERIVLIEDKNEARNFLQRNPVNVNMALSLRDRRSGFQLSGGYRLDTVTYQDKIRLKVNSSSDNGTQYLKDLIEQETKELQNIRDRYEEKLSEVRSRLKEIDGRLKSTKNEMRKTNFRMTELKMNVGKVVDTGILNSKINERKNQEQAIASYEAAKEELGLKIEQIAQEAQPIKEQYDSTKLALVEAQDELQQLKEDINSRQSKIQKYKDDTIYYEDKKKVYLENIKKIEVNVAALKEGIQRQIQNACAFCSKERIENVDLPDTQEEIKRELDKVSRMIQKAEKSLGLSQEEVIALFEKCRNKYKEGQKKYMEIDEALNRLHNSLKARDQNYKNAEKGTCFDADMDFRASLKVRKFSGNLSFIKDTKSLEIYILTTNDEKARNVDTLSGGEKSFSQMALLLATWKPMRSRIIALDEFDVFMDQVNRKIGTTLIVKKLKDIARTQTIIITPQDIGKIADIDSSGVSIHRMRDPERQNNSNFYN
Chain of Smc5/6 core complex (S5-S6-N2) (P38632 whole entry, chain 3 of 3): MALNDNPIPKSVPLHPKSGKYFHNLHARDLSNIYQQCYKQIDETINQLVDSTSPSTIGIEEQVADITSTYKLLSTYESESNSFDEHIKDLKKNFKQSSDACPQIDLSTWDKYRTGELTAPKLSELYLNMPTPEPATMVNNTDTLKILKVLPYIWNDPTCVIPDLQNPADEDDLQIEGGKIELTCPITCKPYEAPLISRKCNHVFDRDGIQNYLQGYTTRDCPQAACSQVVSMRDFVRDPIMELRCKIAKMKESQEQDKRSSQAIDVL

[2] = target: Smc5/6 holo-complex (S5-S6-N2/N1-N3-N4) (Saccharomyces cerevisiae, UniProt Q08204;Q12749;P38632;Q07913;Q05541;P43124 1-1093;1-1114;1-267;1-336;1-303;1-402); experiment: EMSA; Hill slope 3.5; 200 nM DNA; two shifted species; 3 repeats; EMSA: 200 nM hairpin, 20 mM HEPES-NaOH pH 7.5, 150 mM NaCl, 0.5 mM TCEP, 30 min at 4 C; 0.8% TBE-agarose gel, 50 V, 3 h, 4 C; settings: protein: recombinant, tags: Smc5-FLAG, Smc6-AVI-HIS, HA-Nse2, HIS-TEV-Nse1, Nse3 untagged, Nse4-HALO-Myc, copies: 1;1;1;1;1;1, label: fluorescein on position 5 of thymine, 6-carbon spacer, 48 bp stem, 4 nt loop AATA, blunt end
Nse5/6 = target: T1, Nse5/6 (Saccharomyces cerevisiae, UniProt Q03718;P40026 1-556;1-464); experiment: EMSA; more extensive concentration range; EMSA: 200 nM hairpin, 20 mM HEPES-NaOH pH 7.5, 150 mM NaCl, 0.5 mM TCEP, 30 min at 4 C; 0.8% TBE-agarose gel, 50 V, 3 h, 4 C; settings: protein: recombinant, tags: Nse5-C.tag (GAAEPEA), HIS-3C-Nse6, copies: 1;1, label: fluorescein on position 5 of thymine, 6-carbon spacer, 48 bp stem, 4 nt loop AATA, blunt end
T1 sequence 1: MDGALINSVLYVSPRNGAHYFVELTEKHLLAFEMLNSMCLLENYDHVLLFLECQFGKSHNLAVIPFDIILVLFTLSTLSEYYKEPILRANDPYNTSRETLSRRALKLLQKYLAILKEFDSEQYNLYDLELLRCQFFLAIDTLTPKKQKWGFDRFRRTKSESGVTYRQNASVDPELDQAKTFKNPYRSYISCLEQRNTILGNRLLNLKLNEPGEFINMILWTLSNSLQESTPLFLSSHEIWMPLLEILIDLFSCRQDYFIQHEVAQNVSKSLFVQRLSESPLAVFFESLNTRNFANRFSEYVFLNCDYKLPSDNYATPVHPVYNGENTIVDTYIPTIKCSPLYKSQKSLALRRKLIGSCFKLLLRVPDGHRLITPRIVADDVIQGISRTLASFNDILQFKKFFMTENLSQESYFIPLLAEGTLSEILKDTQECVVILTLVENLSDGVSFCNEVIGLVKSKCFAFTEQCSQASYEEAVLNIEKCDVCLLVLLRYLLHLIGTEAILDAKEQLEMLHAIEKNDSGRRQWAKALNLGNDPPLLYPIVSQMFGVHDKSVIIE
T1 sequence 2: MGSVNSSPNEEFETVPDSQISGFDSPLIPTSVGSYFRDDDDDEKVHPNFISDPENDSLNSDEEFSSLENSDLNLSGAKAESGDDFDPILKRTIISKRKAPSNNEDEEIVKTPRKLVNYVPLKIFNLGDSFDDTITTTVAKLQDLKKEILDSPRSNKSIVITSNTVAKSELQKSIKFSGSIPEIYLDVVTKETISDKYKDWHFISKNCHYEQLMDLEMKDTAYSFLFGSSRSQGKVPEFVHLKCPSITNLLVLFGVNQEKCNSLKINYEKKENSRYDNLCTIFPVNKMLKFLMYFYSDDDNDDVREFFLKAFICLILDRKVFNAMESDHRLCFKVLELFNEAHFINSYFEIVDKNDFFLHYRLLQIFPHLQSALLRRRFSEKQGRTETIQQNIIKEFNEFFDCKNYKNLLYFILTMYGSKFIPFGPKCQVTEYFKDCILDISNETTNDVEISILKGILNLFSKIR

B1: oligonucleotide C, self-annealed dsDNA hairpin (structured_DNA)
DNA: ATCAGTACTTGTCAACACGAGCAGCCCGTATATTCTCCTACAGCACTAAATATAGTGCTGTAGGAGAATATACGGGCTGCTCGTGTTGACAAGTACTGAT
modifications: internal fluorescein-dT (iFT), between S3 and S4 (position 51, in loop)
binding result [1]: no binding | Kd [2]: ~220 nM | binding result (Nse5/6): no binding
